In the DeepSol protein solubility set:

Test: soluble on expression in E. coli; label from the status in PepcDB or PDB records

Sequence	soluble on expression in E. coli
MGSDKIHHHHHHMDTQQLYFLNDIGKQKPESIRNRSAACPFCDRENLTDILATEGSIIWLKNKFPTLKDTFQTVLIETDNCEDHIATYTEEHMRSLIRFSIKHWLNLQKNEEFTSVILYKNHGPFSGGSLHHAHMQIIGMKYVNYLDNVEQDNFQGVIVQKNEHIELNISDRPIIGFTEFNIIIEDIGCIDELANYIQQTVRYILTDFHKGCSSYNLFFYYLNEKIICKVVPRFVVSPLYVGYKIPQVSTKIEDVKIQLAAYFTKQNDAIIHKKIE	not soluble
MGSDKIHHHHHHMPRSARIDIPNLLQHVIVRGIERRDIFLSDDDRWDFRNRLQKLLLEMDVDCLAWSLMSNHFHLLLRPTRTPLAPFMRRLLTGYAVSFNLRHNRSGHLFQNRYKSIVCDEDSYLLELVRYIHLNPLRAGIVADLGALDTFPWSGHAMLMGKIVLEGQGINEVLRYFGPGVSASRRTYREFMADGVLQGERPDLVGKRSGASGGGCPASDRRILGDENFVEQLKTEECLHQQLRRPMSIESIVATIADQYGVAPKAIASKSRLPRTLDARAVVCYTAVEEGHTGAEVGRVLGMTRSGVAIARRRGEEVLARIESTAEFQHDTRLDSTN	not soluble
SSWWTHVEMGPPDPILGVTEAFKRDTNSKKMNLGVGAYRDDNGKPYVLPSVRKAEAQIAAKNLDKEYLPIGGLAEFCKASAELALGENNEVLKSGRFVTVQTISGTGALRVGASFLQRFFKFSRDVFLPKPSWGNHTPIFRDAGMQLQGYRYYDPKTCGFDFSGALEDISKIPEQSVLLLHACAHNPTGVDPRPEQWKEIASVVKKKNLFAFFDMAYQGFASGDGDKDAWAVRHFIEQGINVCLCQSYAKNMGLYGERVGAFTVVCKDAEEAKRVESQLKILIRPLYSNPPLNGARIAATILTSPDLRKQWLQEVKGMADRIISMRTQLVSNLKKEGSSHNWQHITDQIGMFCFTGLKPEQVERLTKEFSVYMTKDGRISVAGVTSGNVGYLAHAIHQVTK	soluble
MFSYSSSDWQRRFDEPEKPSRIIAHHDERGPFAKDRARVLHSAALRRLADKTQVVGPRDGDNPRTRLTHSLEVAQIARGIGTGLGLDADLCEMAGLTHDIGHPPYGHNGEKALAEIAQDCGGFEGNAQTLRILSKLEPKIVDDHDQSYGLNLTRAALDAACKYPRTKTNPDGSVNKKYGCYDEDAHILQWVRQGHEDTSACVEAQAMDFSDDIAYSVHDVEDGIVSGRVHLGVLWDFVELAELAEKGARAFGGTPEALVDAADHLRELPIISAAADFDGSLRGYVDLKAMTSQLVGRYVGAVIEASRAANPTGVFGRSTGQVVVPDQVLAEVTLLKTIAVLYVMDDPTHRQRQDRQRERIYRVYDYLVAGGRGALDPMFRLWWEQAESEAQRQRVIIDNISSMTESRLERVAKQSAELSSFMG	not soluble
MGHHHHHHSHMNFIKDNSRALIQRMGMTVIKQITDDLFVWNVLNREEVNIICCEKVEQDAARGIIHMILKKGSESCNLFLKSLKEWNYPLFQDLNGQSLFHQ	not soluble
MTCDDWNSYIQVNIYGKTIEGLQQQGVVLESLLNNVGCSKVWIMEGSVCTNPRPESSTHSEESTIEPVVPLSTTLATNKLPRFSTPAIGHSNNNSSKNFTLNLAEKLSEILSDDDKTDEFLENSHQSETSKDDVIKDLLEEMVQTVANSNKPPILLSTTLANVGVPRFSTPIKPQHALNRDFTMNMTEMISEIDSNYEGYELFDDSSNDCTTLTPNCQEVESSFYRALSEAASSIVPYQEGKRRSSRRLSTLSSLKETVKVEPAVSKLTKRRRLTPVECSSETMIPHSQPIPLDTCSDQPIFPNSTHNAIQSDGFSYEQPICEFGDSQLFLSAKSLCTEPNSSIAEDVKPVLTVSDSDITASNRNNIDDHNRVIELSTEV	not soluble
RHMASIEKVANCIRCLAADIVQGGKSGHPGTPMGMAPMSAVLWTEVMKYNSQDPDWVDRDRFVMSNGHGCALQYALLHMAGYNLTMDDLKGFRQDGSRTPGHPERFVTPGVEVTTGPLGQGIANAVGLAIAEAHLAATFNRPGYNIVDHYTYVYCGDGCLMEGVCQEALSLAGHLALEKLIVIYDSNYISIDGSTSLSFTEQCHQKYVAMGFHVIEVKNGDTDYEGLRKALAEAKATKGKPKMIVQTTTIGFGSSKQGTEKVHGAPLGEEDIANIKAKFGRDPQKKYDVDDDVRAVFRMHIDKCSAEQKAWEELLAKYTAAFPAEGAAFVAQMRGELPSGWEAKLPTNSSAIATRKASENCLAVLFPAIPALMGGSADLTPSNLTRPASANLVDFSSSSKEGRYIRFGVREHAMCAILNGLDAHDGIIPFGGTFLNFIGYALGAVRLAAISHHRVIYVATHDSIGVGEDGPTHQPVELVAALRAMPNLQVIRPSDQTETSGAWAVALSSIHTPTVLCLSRQNTEPQSGSSIEGVRHGAYSVVDVPDLQLVIVASGSEVSLAVDAAKALSGELRVRVVSMPCQELFDAQPDTYRQAVLPAGVPVVSVEAYVSFGWEKYSHAHVGMSGFGASAPAGVLYKKFGITVEEVVRTGRELAKRFPDGTAPLKNSSFSKM	soluble
MKVGIDAGGTLIKIVQEQDNQRTFKTELTKNIDQVVEWLNQQQIEKLCLTGGNAGVIAENINIPAQIFVEFDAASQGLGILLKEQGHDLADYIFANVGTGTSLHYFDGQSQRRVGGIGTGGGMIQGLGYLLSQITDYKQLTDMAQHGDRNTIDLKVRHIYKDTEPPIPGDLTAANFGHVLHHLDADFTPSNKLAAVIGVVGEVVTTMAITVAREFKTENIVYIGSSFHNNALLRKVVEDYTVLRGCKPYYVENGAFSGAIGALYLEKLEHHHHHH	soluble
MAHDVEVKNAVRGAYVFDRLSLEMAAEKAGVSFGTARRWKANAESNGDNWDKARDVHVMASGGIENIAQGLLTGFLIKYRKLMSELEENTEMATAAKVEALSALADSFAKMTASSKKLLPETSAMATAMRAIEMMANIVKSKKPHLLPDFLEMLDDLEVQFKKEFK	not soluble
MPLNRNHSELRSGKVNLKNGDPFTIALFGVDSDEKRKQQGGGERSDTIMVLSINPKEKKTELVSIPRDTKAEIAGRGTEEKINHAYAYGGPNMAVKTIEKLMNVPIDHYATIDMDGLHDMIDTLGGVDVVSNSTFTMGANHFVKGEKTHVDGDAAMDFIRSRKEDGAGGDFGRQERQQLILEAMADKMTSASSITHFNTLMNQIQKNVKTDLKLGDLNTIRTKYKDANDQVNRHQLEGEGGIQNDGLYYFIPSDASKNENTQLLRDNLNLLEHHHHHH	soluble
KNKTIEVYVDRATLPTIQQMTQIINENSNNKKLISWSRYPINDETLLESINGSFFKNRPELIKSLDSMILTNEIKKVIINGNTLWAVDVVNIIKSIEALGKKTEIELNFYDDGSAEYVRLYDFSRLPESEQEYKISLSKDNIQSSINGTQPFDNSIENIYGFSQLYPTTYHMLRADIFETNLPLTSLKRVISNNIKQMKWDYFTTFNSQQKNKFYNFTGFNPEKIKEQYKASPHENFIFIGTNSGTATAEQQIDILTEAKKPDSPIITNSIQGLDLFFKGHPSATYNQQIIDAHNMIEIYNKIPFEALIMTDALPDAVGGMGSSVFFSLPNTVENKFIFYKSDTDIENNALIQVMIELNIVNRNDVKLISDLQ	soluble
MGSDKIHHHHHHMLEELRTLVLFAEEGSIQNVARRLPLTQPAVTRQMQRLEDMLATTLLDRRQKPPRLTAAGLEVLARAKDILASVEALKAFAADAEPQGVLRVGLAHGLSDASIAGAIAGAAAAFPKISLRLKTGWSAELIEQFERGQLDMAIVLRPADHQGPDALGTERLCIIAQAGAHLTDARVPMPWVLSPEPCDARQTLLSSLGGERHPLIVAAEIQDPAMQMEWVRRGHGLGLMPLRLAARGLPDGLALVDLEDVDLSLQVVALRSPHLNRLAKAVEAIAQTVGEAIKIEA	not soluble
MTTQSTLQSVPALGTHPASGSNPSRAETREQLSKASYDLLVIGGGILGISTAWHAAQSGLRVAVVDAGDFAGATSSASSKLLHGGLRYLQTGAVKLVAENHFERRAVSRQVAPHLANPLTFYLPVYKGGPHGAAKLGAGVFAYSALSAFGDGVGHLLSPAKAAQDVPELRTDNLKAVAVYGDDQMNDARMALMTVRAAVESGAVVLNHAEVTGLRFTGGRVTGAELKDRLSGDEFGVNARLVLNATGPWVDHLRRMEDPAAAPSIRLSKGAHLVLKRTAPWKAALATPIDKYRITFALPWEDMLLLGTTDEEFEGDPADVAVNDKDITQILDEAAFSIRDQQLDRDLITYSFAGLRVLPGGPGDTAKAKRETVVTEGRGGMLSVAGGKWTTFRHIGRTVMKKLEALPGHPLGDDFEPIASLPKKLPLPGVANPRAVAHRLLVDGSAPGPRMAADTARHLATHYGSLAFDIARLANESPELARRVHPDAPEIWAQVVWARDNEWAETADDVLRRRTTLTIRGLATDDVRAQVQDVLDKKLEHHHHHH	not soluble
MAHHHHHHMTAYPFPIIDVSPLYQNTGAVMEVAKKIDEACRTWGFFYVVGHPIPRERFQELSRMARKFFSLPLEEKLQIDIKKSRHHRGYGEVNAEQLDPSAPNDHKETFDMGCHLPEDHPDVVAGKPLRGPNRHPTQLEGWRELMETHYREMQHFALVLLRALAVAIGIEEDFFVPRFVEPLSVFRMIHYPALPKTKEGRLVCGEHTDYGIITLLFQDTNGGLQVRDLSGEWIDAPPLEGSFVVNIGDMMNMWSNNRYRSTPHRVVNPGVDRISMPFFCEPNPNVVIKCLENCHSAENPAKYPPVKASDWLQKRFAQTYAYRKSML	soluble
MAAPSAGSWSTFQHKELMAADRGRRILGVCGMHPHHQETLKKNRVVLAKQLLLSELLEHLLEKDIITLEMRELIQAKVGSFSQNVELLNLLPKRGPQAFDAFCEALRETKQGHLEDMLLTTLSGLQHVLPPLSCDYDLSLPFPVCESCPLYKKLRLSTDTVEHSLDNKDGPVCLQVKPCTPEFYQTHFQLAYRLQSRPRGLALVLSNVHFTGEKELEFRSGGDVDHSTLVTLFKLLGYDVHVLCDQTAQEMQEKLQNFAQLPAHRVTDSCIVALLSHGVEGAIYGVDGKLLQLQEVFQLFDNANCPSLQNKPKMFFIQACRGDETDRGVDQQDGKNHAGSPGCEESDAGKEKLPKMRLPTRSDMICGYACLKGTAAMRNTKRGSWYIEALAQVFSERACDMHVADMLVKVNALIKDREGYAPGTEFHRCKEMSEYCSTLCRHLYLFPGHPPT	not soluble
HHHHHHLQGAAPTATVTPSSGLSDGTVVKVAGAGLQAGTAYDVGQCAWVDTGVLACNPADFSSVTADANGSASTSLTVRRSFEGFLFDGTRWGTVDCTTAACQVGLSDAAGNGPEGVAISFN	soluble
MGSDKIHHHHHHANVEVQKENFVFSIKGTDTLSLDKYELPSISPASKKPVMIFAFGGGFKGGDKADKGYIPYFEFLARNGFVVVSTDYRTTLKNLDPSKVSSPMDFIAALQHAIDTAVEDFYDATGFVINQSSDWNIDVEQIVASGSSAGAITVLQAEYDLCNGHELAKRLPAGFNYAGVISYAGAVSGVLPPHWEKMPCPIMLFHGDADKTVPFEQAAMENLGGLWGSSAVAKSLENLQASYYFYKVENAGHEISGLPMSRNQYDIMSFLSRQVLGDENLAITTDERVPGDTIVRKDFTVQDYILDNLR	not soluble
MGSDKIHHHHHHMKQDRRKLFVLDTNVLLHEPLAIYSFKEHDVVIPMTVLEELDNIKDRKHDISRDARVAIRALEDILGGPTTPEQILKGVPLPSREGHLDVAGSLSIFPDHQVDFIAGALPGDNNDNLIINVALHLQKVHKPRTVVLVTKDINMRLKAKGAGIEKVEDYRTDQLIDDIRFLAKGFYQFEGDFWSKLDKVTTERQGKHTIHHVPIAALGKEAFYLNQYLLDDEANFCGRITGKTDTQLDIIDLGRDRLNHIEAWGIKPKNIYQGMALNALLDPEIDLVILTGPAGCGKTLLAIAAALELVVERKRYDKIIVTRNTPEIAESIGFLPGTEEEKMAPWLAAITDTLEVLHKNDVNPSGSMNYIMEKANIQFKSINFMRGRSIQNSVVLLDECQNLTASQIKTMITRMGEGTKLICCGNLSQIDSTYLTAVTSGLTYIVERFKDFEGSANVYLNGVVRSRLAEYAEEHL	not soluble
